B1: wild-type p150^Glued NH2-terminal residues 1–333 (domain or fragment, human, UniProt Q14203-1 1-333, looked up)
chain: MAQSKRHVYSRTPSGSRMSAEASARPLRVGSRVEVIGKGHRGTVAYVGATLFATGKWVGVILDEAKGKNDGTVQGRKYFTCDEGHGIFVRQSQIQVFEDGADTTSPETPDSSASKVLKREGTDTTAKTSKLRGLKPKKAPTARKTTTRRPKPTRPASTGVAGASSSLGPSGSASAGELSSSEPSTPAQTPLAAPIIPTPVLTSPGAVPPLPSPSKEEEGLRAQVRDLEEKLETLRLKRAEDKAKLKELEKHKIQLEQVQEWKSKMQEQQADLQRRLKEARKEAKEALEAKERYMEEMADTADAIEMATLDKEMAEERAESLQQEVEALKERVD
modifications: [35S]methionine label (microtubule binding assay)
B2: G59S p150^Glued NH2-terminal residues 1–333 (domain or fragment, human, UniProt Q14203-1 1-333, looked up)
chain: MAQSKRHVYSRTPSGSRMSAEASARPLRVGSRVEVIGKGHRGTVAYVGATLFATGKWVSVILDEAKGKNDGTVQGRKYFTCDEGHGIFVRQSQIQVFEDGADTTSPETPDSSASKVLKREGTDTTAKTSKLRGLKPKKAPTARKTTTRRPKPTRPASTGVAGASSSLGPSGSASAGELSSSEPSTPAQTPLAAPIIPTPVLTSPGAVPPLPSPSKEEEGLRAQVRDLEEKLETLRLKRAEDKAKLKELEKHKIQLEQVQEWKSKMQEQQADLQRRLKEARKEAKEALEAKERYMEEMADTADAIEMATLDKEMAEERAESLQQEVEALKERVD
modifications: [35S]methionine label (microtubule binding assay)

Target: microtubules polymerized from purified tubulin, stabilized with paclitaxel (UniProt Q6B856 1-445)
Assay: co-sedimentation

Row | Binder | Kd [µM]
1 | B1 | 1.1 ± 0.2
2 | B2 | 2.6 ± 0.5
